# Measured values published in patent publication US20220288219A1 (MYTHIC THERAPEUTICS, published 2022).
# Numbering of substitutions follows the chain as printed. In names and notes the source's numbering stands.
# T1: CD22 Protein (His Tag), Sino Biological Cat. No. 11958-H08H (UniProt P20273 20-687)
# T1 construct: soluble analyte, 50 nM in BLI; also called Sino Biological antigen
# T1 sequence (looked up): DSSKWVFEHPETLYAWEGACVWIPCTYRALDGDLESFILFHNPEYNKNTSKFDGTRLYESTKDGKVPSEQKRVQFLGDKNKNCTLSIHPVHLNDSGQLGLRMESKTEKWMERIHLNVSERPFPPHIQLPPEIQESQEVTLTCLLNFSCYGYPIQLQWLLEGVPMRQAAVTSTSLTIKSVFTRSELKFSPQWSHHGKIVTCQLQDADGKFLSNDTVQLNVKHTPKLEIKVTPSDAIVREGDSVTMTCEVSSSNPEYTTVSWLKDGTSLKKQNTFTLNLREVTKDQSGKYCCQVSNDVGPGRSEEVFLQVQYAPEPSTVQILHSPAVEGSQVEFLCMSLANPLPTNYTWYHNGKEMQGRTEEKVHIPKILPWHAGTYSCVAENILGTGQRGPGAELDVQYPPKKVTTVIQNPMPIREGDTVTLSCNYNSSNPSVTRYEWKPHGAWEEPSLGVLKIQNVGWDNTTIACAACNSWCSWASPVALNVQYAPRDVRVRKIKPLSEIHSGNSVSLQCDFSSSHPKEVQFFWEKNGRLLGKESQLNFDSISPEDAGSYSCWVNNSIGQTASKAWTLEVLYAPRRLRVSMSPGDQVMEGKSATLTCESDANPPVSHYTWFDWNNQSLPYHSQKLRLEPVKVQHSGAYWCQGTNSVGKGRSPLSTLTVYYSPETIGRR
# B1: MYT2275 (antibody, V domains shown)
# VH: EVQLVESGGGLVKPGGSLRLSCAASGFAFSHYDMSWVRQAPGKGLEWVAYISSGGGTTYYPDTVKGRFTISRDNAKNSLYLQMSSLRAEDTAMYYCARHSGYGSSYGVLFAYWGQGTLVTVSS
# VL: DIQMTQSPSSLSASVGDRVTITCRASQDISNYLNWYQQKPGKAVKLLIYYTSILHSGVPSRFSGSGSGTDYTLTISSLQQEDFATYFCQQGNTLPWTFGGGTKVEIK
# notes: TRPH-222 VH I31H; tie by order
# B2: MYT2301 (antibody, V domains shown)
# VH: B1 VH with H31I, G101H
# VL: B1 VL
# notes: TRPH-222 VH G101H; tie by order
# B3: MYT2303 (antibody, V domains shown)
# VH: B1 VH with H31I, G103H
# VL: B1 VL
# notes: TRPH-222 VH G103H; tie by order
# B4: MYT1496 (antibody, V domains shown)
# VH: QVQLVQSGAEVKKPGSSVKVSCKASHYTFTSYWLHWVRQAPGQGLEWIGYINPRNDYTEYNQNFKDKATITADESTNTAYMELSSLRSEDTAFYFCARRDITTFYWGQGTTVTVSS
# VL: DIQLTQSPSSLSASVGDRVTMSCKSSQSVLYSANHKNYLAWYQQKPGKAPKLLIYWASTRESGVPSRFSGSGSGTDFTFTISSLQPEDIATYYCHQYLSSWTFGGGTKVQIK
# notes: ADCT-602 VH G26H; tie by order
# B5: MYT1497 (antibody, V domains shown)
# VH: B4 VH with H26G, Y27H
# VL: B4 VL
# notes: ADCT-602 VH Y27H; tie by order
# B6: MYT1498 (antibody, V domains shown)
# VH: B4 VH with H26G, T28H
# VL: B4 VL
# notes: ADCT-602 VH T28H; tie by order
# B7: MYT1499 (antibody, V domains shown)
# VH: B4 VH with H26G, F29H
# VL: B4 VL
# notes: ADCT-602 VH F29H; tie by order
# B8: MYT1504 (antibody, V domains shown)
# VH: B4 VH with H26G, L34H
# VL: B4 VL
# notes: ADCT-602 VH L34H; tie by order
# B9: MYT1505 (antibody, V domains shown)
# VH: B4 VH with H26G, H35A
# VL: B4 VL
# notes: ADCT-602 VH H35A; tie by order
# B10: MYT1507 (antibody, V domains shown)
# VH: B4 VH with H26G, I51H
# VL: B4 VL
# notes: ADCT-602 VH I51H; tie by order
# B11: MYT1508 (antibody, V domains shown)
# VH: B4 VH with H26G, N52H
# VL: B4 VL
# notes: ADCT-602 VH N52H; tie by order
# B12: MYT1509 (antibody, V domains shown)
# VH: B4 VH with H26G, P53H
# VL: B4 VL
# notes: ADCT-602 VH P53H; tie by order
# B13: MYT1513 (antibody, V domains shown)
# VH: B4 VH with H26G, Y57H
# VL: B4 VL
# notes: ADCT-602 VH Y57H; tie by order
# B14: MYT1521 (antibody, V domains shown)
# VH: B4 VH with H26G, K65H
# VL: B4 VL
# notes: ADCT-602 VH K65H; tie by order
# B15: MYT1523 (antibody, V domains shown)
# VH: B4 VH with H26G, A97H
# VL: B4 VL
# notes: ADCT-602 VH A97H; tie by order
# B16: MYT1525 (antibody, V domains shown)
# VH: B4 VH with H26G, R99H
# VL: B4 VL
# notes: ADCT-602 VH R99H; tie by order
# B17: MYT1526 (antibody, V domains shown)
# VH: B4 VH with H26G, D100H
# VL: B4 VL
# notes: ADCT-602 VH D100H; tie by order
# B18: MYT1527 (antibody, V domains shown)
# VH: B4 VH with H26G, I101H
# VL: B4 VL
# notes: ADCT-602 VH I101H; tie by order
# B19: MYT1529 (antibody, V domains shown)
# VH: B4 VH with H26G, T103H
# VL: B4 VL
# notes: ADCT-602 VH T103H; tie by order
# B20: MYT4624 (antibody, V domains shown)
# VH: QVQLVQSGSELKKPGASVKVSCKASGYTFTSYHMNWVRQAPGQGLEWMGWINTNTGNPTYAQGFTGRFVFSLDTSVSTAYLQISSLKAEDTAVYYCARLFYYYFGMDVWGQGTTVTVSS
# VL: QSALTQPASVSGSPGQSITISCTGTSSDVGSYNLVSWYQLHPGKAPKLMIYEVSKRPSGVSNRFSGSRSGNTASLTISGLQAEDEADYYCCSYANSSTLVFGGGTKLTVL
# notes: 12C5 VH A33H; tie by order
# B21: MYT4626 (antibody, V domains shown)
# VH: B20 VH with H33A, N35H
# VL: B20 VL
# notes: 12C5 VH N35H; tie by order
# B22: MYT4649 (antibody, V domains shown)
# VH: B20 VH with H33A, F104H
# VL: B20 VL
# notes: 12C5 VH F104H; tie by order
# B23: MYT4650 (antibody, V domains shown)
# VH: B20 VH with H33A, G105H
# VL: B20 VL
# notes: 12C5 VH G105H; tie by order
# B24: MYT4651 (antibody, V domains shown)
# VH: B20 VH with H33A, M106H
# VL: B20 VL
# notes: 12C5 VH M106H; tie by order
# B25: MYT4715 (antibody, V domains shown)
# VH: QVQLQQWGAGLLKPSETLSLTCAVYGRSFSSYYWSWIRQPPGKGLEWIGDIQHSGSTNYNPSLKSRVTISVDTSKNQFSLKLSSVTAADTAVYYCHGTFYDILTGYYPLGYWGPGTLVTVSS
# VL: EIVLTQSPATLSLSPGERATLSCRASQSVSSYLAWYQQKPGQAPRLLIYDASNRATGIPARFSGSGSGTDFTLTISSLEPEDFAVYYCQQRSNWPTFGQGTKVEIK
# notes: 19A3 VH A96H; tie by order
# B26: MYT4718 (antibody, V domains shown)
# VH: B25 VH with H96A, F99H
# VL: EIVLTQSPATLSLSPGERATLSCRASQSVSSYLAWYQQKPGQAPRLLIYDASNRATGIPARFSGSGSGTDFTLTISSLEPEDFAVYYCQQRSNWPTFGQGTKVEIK
# notes: 19A3 VH F99H; tie by order
# B27: MYT4720 (antibody, V domains shown)
# VH: B25 VH with H96A, D101H
# VL: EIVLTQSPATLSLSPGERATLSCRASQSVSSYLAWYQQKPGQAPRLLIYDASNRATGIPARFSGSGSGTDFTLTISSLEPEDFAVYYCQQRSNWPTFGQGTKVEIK
# notes: 19A3 VH D101H; tie by order
# B28: MYT4723 (antibody, V domains shown)
# VH: B25 VH with H96A, T104H
# VL: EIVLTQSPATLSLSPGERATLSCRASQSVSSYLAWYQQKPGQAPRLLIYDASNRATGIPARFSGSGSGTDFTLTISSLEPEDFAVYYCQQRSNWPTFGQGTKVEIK
# notes: 19A3 VH T104H; tie by order
# Target: T1, CD22 Protein (His Tag), Sino Biological …
# Experiment: BLI, IgG on anti-human Fc sensor
row,Binder,binding result
1,B1,no binding (tested: 50 nM)
2,B2,no binding (tested: 50 nM)
3,B3,no binding (tested: 50 nM)
4,B4,no binding (tested: 50 nM)
5,B5,no binding (tested: 50 nM)
6,B6,no binding (tested: 50 nM)
7,B7,no binding (tested: 50 nM)
8,B8,no binding (tested: 50 nM)
9,B9,no binding (tested: 50 nM)
10,B10,no binding (tested: 50 nM)
11,B11,no binding (tested: 50 nM)
12,B12,no binding (tested: 50 nM)
13,B13,no binding (tested: 50 nM)
14,B14,no binding (tested: 50 nM)
15,B15,no binding (tested: 50 nM)
16,B16,no binding (tested: 50 nM)
17,B17,no binding (tested: 50 nM)
18,B18,no binding (tested: 50 nM)
19,B19,no binding (tested: 50 nM)
20,B20,no binding (tested: 50 nM)
21,B21,no binding (tested: 50 nM)
22,B22,no binding (tested: 50 nM)
23,B23,no binding (tested: 50 nM)
24,B24,no binding (tested: 50 nM)
25,B25,no binding (tested: 50 nM)
26,B26,no binding (tested: 50 nM)
27,B27,no binding (tested: 50 nM)
28,B28,no binding (tested: 50 nM)
